Results as given in patent publication US11866736B2, “Protein prostheses for mitochondrial diseases or conditions” (The General Hospital Corporation, priority 2015, dated 2024).

What was measured:
[1] = Enzyme-monitored turnover (stopped flow, FAD absorbance at 455 nm); assay type: biochemical
Description: The experiment was carried out by monitoring the time dependence of FAD oxidation state via its absorbance at 455 nm in 50 mM NaPi pH7.5 150 mM NaCl buffer at 4° C. Air-saturated LbNOX (1.9, 2.9, 5.6 and 9.18 μM FAD active sites after mixing) and air-saturated solution of NADH (2 mM after mixing). The traces at 455 nm are treated as records of the rate of catalysis as a continuous function of the concentration of O2 (the limiting substrate).
The reaction of LbNOX with oxygen was studied by the enzyme-monitored turnover method (Gibson, et al., J. Biol. Chem., 239:3927, 1964; and Tapley, et al., J. Biol. Chem., 282:10263, 2007). Rapid reaction studies were carried out at 4° C. in a SX20 stopped flow instrument (Applied Photophysics, UK) equipped with a diode array detector. To follow the redox state of the FAD cofactor, LbNOX enzyme (1.9, 2.9, 5.6 and 9.18 μM FAD active sites after mixing) was mixed with NADH (2 mM after mixing), both prepared in air-saturated assay buffer (50 mM Na2HPO4, pH 7.5, 150 mM NaCl) and absorbance at 455 nm was monitored over time. Solubility of oxygen at 4° C. was calculated from oxygen solubility table at corresponding salinity of the assay buffer which is ˜380 μM. Results represent (n=3) independent experiments. The traces at 455 nm reflect the conversion of oxidized to reduced enzyme forms and are treated as previously described (Gibson, et al., J. Biol. Chem., 239:3927, 1964), where the area under the curve is proportional to the concentration of oxygen which is a limiting substrate under these conditions. […] We therefore estimated that apparent KM for O2 to be less than 2 μM. Based on the enzyme concentration (1.9-9.18 μM) and time it took to consume O2 (8.12-1.67 sec), apparent kcat can be calculated (FIG. 7).

primary rat hepatocytes = experiment: Gluconeogenesis in primary hepatocytes (adenoviral transduction); assay type: cell-based; settings: adenovirus transduction, 5 mM lactate, glucose measured after 6 hours
Excerpt: Two custom adenoviruses (Adenovirus Type 5 (dE1/E3)) were produced by Vector Biolabs. The same LbNOX and mitoLbNOX nucleotide sequences were used as in the lentiviral pLVX-TRE3G constructs. Adenoviral constructs encode for expression of either LbNOX or mitoLbNOX and eGFP, each gene driven by its own CMV promoter. Adenovirus with eGFP driven by the CMV promoter was used as a control (Vector Biolabs, 1060-HT).
Primary hepatocytes were obtained from the MGH Cell Resource Core, where they were freshly isolated by collagenase perfusion of livers from 24-hour fasted Sprague-Dawley rats and plated onto 24-well collagen-coated plates. Twenty four thousand cells were plated and cultured overnight in isolation media (DMEM with high glucose and pyruvate (Life Technologies, 11995)) supplemented with 20 ng/mL epidermal growth factor, 14.3 μg/mL glucagon, insulin, 7.5 μg/mL hydrocortisone, 10% FBS, 1% Penicillin-streptomycin). Cells were then transduced with the indicated adenoviral vector (MOI 20) and were serum starved by incubating in DMEM without additional supplementation overnight. […] Media was sampled 6 hours later and glucose was measured using the AMPLEX® Red Glucose Assay (Life-Technologies) and normalized to total protein levels from hepatocytes lysed in 1% SDS as measured by the BCA assay. […]

HeLa Tet3G cells = experiment: Glucose concentration-dependent cell survival; assay type: cell-based, human
Description: Images of 96-well plates with fixed cells stained with Hoechst 33345 were collected using Molecular Devices IMAGEXPRESS® Micro XLS. Four images were taken to cover the whole well. Images were analyzed and nuclei number per well was counted using CellProfiler 2.0 image analysis software (Carpenter, et al., Genome Biol., 7:R100, 2006; and Kamentsky, et al., Bioinformatics, 27:1179, 2011).
Ten thousand HeLa Tet3G NDI1, Luciferase, LbNOX or mitoLbNOX cells were seeded in 200 μl of DMEM (DMEM (US Biological, D9800), 3.7 g/L NaHCO3, 10% dialyzed FBS (Life Technologies, 26400-044)) per well of a black 96-well plate with clear bottom (Corning, 3904). Twenty four hours after seeding, 10 μl of 6 μg/ml doxycycline (300 ng/ml final concentration) or water was added to each well. Twenty four hours after addition of doxycycline, media was exchanged to DMEM (DMEM (US Biological, D9800), 3.7 g/L NaHCO3, 10% dialyzed FBS (Life Technologies, 26400-044))±300 ng/ml doxycycline. […] After 24 hours, media was aspirated and cells were fixed by adding 100 μl of 4% paraformaldehyde in PBS and incubating at room temperature for at least 30 min. Paraformaldehyde solution was aspirated and cells were stained with 200 μl of 1 μg/ml Hoechst 33345. Plates were covered with sealing aluminum foil and stored at 4° C. before counting cells in each well with Molecular Dynamics IMAGEXPRESS® Ultra (see “Nuclei counting using Molecular Devices IMAGEXPRESS® Ultra,” above).

[2] = Enzymatic assay of NAD(P)H oxidase activity, NADPH as substrate (Michaelis-Menten analysis); assay type: biochemical
Description: TPNOX is highly specific towards NADPH (e.g., approximately 1120 fold more reactive with NADPH than with NADH based on respective kat/KM values).
Recombinant LbNOX activity was monitored by following the decrease of the absorbance of NAD(P)H at […] using CARY® 100 spectrophotometer (Agilent, CA). A typical reaction mixture contained 2 μM FAD in 0.5 ml of the assay buffer (50 mM Na2HPO4, pH 7.5, 150 mM NaCl) and was incubated for 4 min at 37° C. before NAD(P)H (2-600 μM) and enzyme (0.08-6.8 μg) were added. Extinction coefficient (ε340=6.2 mM^−1 cm^−1) was used to calculate NAD(P)H oxidase activity. Simultaneous monitoring of oxygen consumption and NADH fluorescence was performed using a custom-built fluorimeter. In our setup the REDEYE™ oxygen patch (OceanOptics) was installed in a cuvette and the optical probe was connected to a fluorimeter. Oxygen causes quenching of the REDEYE™ patch fluorescence which allows to monitor the partial pressure of oxygen. In our experiments 0.5 ml of the assay buffer was preincubated at 28° C. before NADH (40-1500 μM) and LbNOX (0.1-2 μg) were added.

HeLa cells = experiment: Tolerability of doxycycline-inducible expression in HeLa cells; assay type: cell-based, human
Excerpt: Lentiviral infection was used to generate HeLa cells that expressed untargeted or mitochondria-targeted TPNOX (referred to as TPNOX and mitoTPNOX, respectively) under the control of a doxycycline-inducible promoter (TRE3G) (FIG. 16A).

Molecule | apparent KM for O2, fold lower than the concentration of oxygen in human venous blood [1] | apparent KM for O2 expressed as % O2 ([1]; estimated from enzyme-monitored turnover) [% O2] | Km ([1]; estimated from enzyme-monitored turnover, 4° C., read-out: apparent KM for O2) [µM] | gluconeogenesis from lactate (primary rat hepatocytes) | effect on decrease in cell number (cell survival) at low glucose concentrations in the presence of piericidin (HeLa Tet3G cells; 1 μM piericidin, 24 hours) | effect on decrease in cell number (cell survival) at low glucose concentrations in the presence of antimycin (HeLa Tet3G cells; antimycin) | kcat with NADPH [2] [s⁻¹] | Km ([2]; recombinant enzyme) [µM] | tolerability of expression (cell morphology, viability, proliferation) (HeLa cells)
LbNOX: water-forming NADH oxidase endogenous to Lactobacillus brevis; tested with C-terminal FLAG tag (protein, listed as Lactobacillus brevis, C-terminal FLAG tag) KVTVVGCTHAGTFAIKQILAEHPDAEVTVYERNDVISFLSCGIALYLGGKVADPQGLFYSSPEELQKLGANVQMNHNVLAIDPDQKTVTVEDLTNHAQTTESYDKLVMTSGSWPIVPKIPGIDSDRVKLCKNWAHAQALIEDAKEAKRITVIGAGYIGAELAEAYSTTGHDVTLIDAMARVMPKYFDADFTDVIEQDYRDHGVQLALGETVESFTDSATGLTIKTDKNSYETDLAILCIGFRPNTDLLKGKVDMAPNGAIITDDYMRSSNPDIFAAGDSAAVHYNPTHQNAYIPLATNAVRQGILVGKNLVKPTVKYMGTQSSSGLALYDRTIVSTGLTLAAAKQQGLNAEQVIVEDNYRPEFMPSTEPVLMSLVFDPDTHRILGGALMSKYDVSQSANTLSVCIQNENTIDDLAMVDMLFQPNFDRPFNYLNILAQAAQAKVAQSVNA | more than 10 fold | ~0.17 | < 2 | significantly increased | no effect | no effect | – | – | –
TPNOX: NADPH-specific quintuple mutant (G159A/D177A/A178R/M179S/P184R) of LbNOX (protein) KVTVVGCTHAGTFAIKQILAEHPDAEVTVYERNDVISFLSCGIALYLGGKVADPQGLFYSSPEELQKLGANVQMNHNVLAIDPDQKTVTVEDLTNHAQTTESYDKLVMTSGSWPIVPKIPGIDSDRVKLCKNWAHAQALIEDAKEAKRITVIGAGYIAAELAEAYSTTGHDVTLIARSARVMRKYFDADFTDVIEQDYRDHGVQLALGETVESFTDSATGLTIKTDKNSYETDLAILCIGFRPNTDLLKGKVDMAPNGAIITDDYMRSSNPDIFAAGDSAAVHYNPTHQNAYIPLATNAVRQGILVGKNLVKPTVKYMGTQSSSGLALYDRTIVSTGLTLAAAKQQGLNAEQVIVEDNYRPEFMPSTEPVLMSLVFDPDTHRILGGALMSKYDVSQSANTLSVCIQNENTIDDLAMVDMLFQPNFDRPFNYLNILAQAAQAKVAQSVNA | – | – | – | – | – | – | 268 ± 4 | 22 ± 2 | safely tolerated
